# ± gives the uncertainty stated by the source.
# B1: SH3 and PX domain-containing protein 2B, residues 155 to 209; numbered along this chain, A1X283 (parent)
# chain: EQYVVVANYQKQESSEISLSVGQVVDIIEKNESGWWFVSTAEEQGWVPATCLEGQ
# Variants of: B1
# Test: abundance fitness (aPCA) (normalised: wild type 0, dead -1); higher = more abundant; growth selection in yeast, the domain comes from the species named
# Conditions: Homo sapiens
row,Variant,abundance fitness
1,W35Y,-0.22 ± 0.15
2,W35L,-0.073 ± 0.069
3,N31W,-0.367 ± 0.12
4,N31P,-0.194 ± 0.1
5,N31L,-0.092 ± 0.083
6,N31Q,-0.188 ± 0.17
7,N31A,-0.114 ± 0.075
8,N31I,-0.401 ± 0.11
9,A7F,-0.076 ± 0.17
10,A7D,-0.046 ± 0.14
11,A7N,-0.09 ± 0.15
12,A7Y,0.025 ± 0.12
13,A7G,-0.098 ± 0.058
14,A7H,-0.394 ± 0.2
15,A7I,-0.32 ± 0.12
16,C51D,-0.737 ± 0.14
17,C51S,-0.219 ± 0.087
18,C51G,-0.711 ± 0.08
19,C51Q,-0.349 ± 0.13
20,C51K,-0.245 ± 0.14
21,C51L,-0.267 ± 0.085
22,C51W,-0.596 ± 0.096
23,C51M,-0.787 ± 0.36
24,C51H,-0.322 ± 0.22

row,Variant,abundance fitness
1,Y9I,-0.809 ± 0.37
2,Y9Q,-0.744 ± 0.15
3,Y9M,-0.508 ± 0.13
4,Y9S,-0.484 ± 0.091
5,Y9C,-0.648 ± 0.14
6,Y9T,-0.312 ± 0.11
7,E42D,0.086 ± 0.082
8,E42A,-0.057 ± 0.077
9,E42C,-0.064 ± 0.092
10,E42H,0.063 ± 0.37
11,Q55P,0.045 ± 0.18
12,Q55T,-0.07 ± 0.27
13,Q55R,0.054 ± 0.12
14,Q55M,-0.233 ± 0.25
15,Q55D,-0.034 ± 0.16
16,Q55L,-0.138 ± 0.15
17,Q23I,-0.308 ± 0.15
18,Q23H,-0.136 ± 0.13
19,D26H,-0.214 ± 0.29
20,D26E,-0.112 ± 0.11
21,D26S,-0.122 ± 0.096
22,D26G,-0.126 ± 0.067
23,D26Y,-0.272 ± 0.18
24,D26A,-0.054 ± 0.084

row,Variant,abundance fitness
1,D26R,-0.103 ± 0.068
2,D26K,0.028 ± 0.13
3,P48Y,-1.03 ± 0.32
4,P48M,-0.76 ± 0.16
5,P48D,-0.252 ± 0.2
6,P48G,-1 ± 0.12
7,P48V,-0.79 ± 0.13
8,P48L,-0.455 ± 0.1
9,P48E,-0.522 ± 0.18
10,P48K,-0.334 ± 0.1
11,P48F,-0.998 ± 0.34
12,P48W,-0.835 ± 0.12
13,P48R,-0.306 ± 0.068
14,E13C,-0.19 ± 0.1
15,E13M,-0.025 ± 0.12
16,E13H,-0.154 ± 0.11
17,E13N,-0.046 ± 0.16
18,E13K,-0.015 ± 0.15
19,E13P,-0.598 ± 0.12
20,E13R,-0.182 ± 0.081
21,V47K,-0.929 ± 0.25
22,V47E,-0.776 ± 0.14
23,V47D,-1.1 ± 0.22
24,V47F,-0.229 ± 0.097

row,Variant,abundance fitness
1,V47T,-0.552 ± 0.13
2,L52P,-0.826 ± 0.24
3,L52R,-0.835 ± 0.12
4,L52N,-1.05 ± 0.23
5,L52H,-0.773 ± 0.43
6,L52F,-0.083 ± 0.093
7,T50Y,-0.095 ± 0.19
8,T50G,0.001 ± 0.083
9,T50F,-0.337 ± 0.14
10,T50L,-0.125 ± 0.097
11,T50K,0.09 ± 0.12
12,W36M,-0.202 ± 0.13
13,W36F,0.083 ± 0.1
14,W36Q,-0.71 ± 0.12
15,W36S,-0.211 ± 0.079
16,W36R,-0.462 ± 0.084
17,W36Y,-0.099 ± 0.11
18,W36T,-0.234 ± 0.098
19,W36N,-0.367 ± 0.17
20,W36G,-0.767 ± 0.085
21,W36I,-0.139 ± 0.16
22,E32M,-0.188 ± 0.11
23,E32T,-0.122 ± 0.16
24,E32D,-0.047 ± 0.09

row,Variant,abundance fitness
1,E32H,-0.139 ± 0.13
2,E32G,0.001 ± 0.061
3,E32R,-0.108 ± 0.064
4,E1V,-0.035 ± 0.076
5,E1D,-0.108 ± 0.14
6,E1I,-0.299 ± 0.33
7,E1A,-0.364 ± 0.17
8,E1G,-0.315 ± 0.098
9,E1S,-0.177 ± 0.31
10,Q10C,-0.135 ± 0.17
11,Q10F,-0.257 ± 0.27
12,Q10I,-0.128 ± 0.17
13,Q10R,-0.071 ± 0.096
14,V4Y,0.046 ± 0.21
15,V4L,0.075 ± 0.065
16,V4C,-0.01 ± 0.13
17,V4S,0.083 ± 0.088
18,T40A,-0.124 ± 0.07
19,K11Y,-0.465 ± 0.14
20,K11L,-0.433 ± 0.11
21,K11H,0.064 ± 0.14
22,K11M,-0.115 ± 0.18
23,K11T,-0.357 ± 0.14
24,G22W,-0.834 ± 0.11

row,Variant,abundance fitness
1,G22L,-0.921 ± 0.11
2,G22N,-0.33 ± 0.16
3,G22R,-0.549 ± 0.078
4,G22D,-0.246 ± 0.14
5,V21Q,-0.036 ± 0.11
6,V21Y,-0.444 ± 0.12
7,V21N,-0.342 ± 0.12
8,V21C,-0.025 ± 0.1
9,V21K,0.092 ± 0.2
10,V21T,-0.061 ± 0.14
11,V21G,-0.453 ± 0.082
12,Q44D,-0.14 ± 0.11
13,Q44G,-0.151 ± 0.061
14,Q44S,-0.136 ± 0.074
15,Q44K,-0.106 ± 0.12
16,Q44M,-0.122 ± 0.13
17,Q44L,-0.337 ± 0.089
18,Q44Y,-0.376 ± 0.19
19,Q44V,-0.225 ± 0.1
20,I27W,-0.477 ± 0.1
21,I27T,-0.183 ± 0.092
22,I27V,0.055 ± 0.071
23,I27K,-0.617 ± 0.21
24,I27R,-0.277 ± 0.058

row,Variant,abundance fitness
1,I27Y,-0.149 ± 0.21
2,N8L,-0.447 ± 0.075
3,N8F,-0.26 ± 0.12
4,N8A,0.093 ± 0.081
5,N8Q,-0.105 ± 0.14
6,N8W,-0.524 ± 0.088
7,N8E,-0.068 ± 0.092
8,V6S,-0.087 ± 0.11
9,V6A,0.049 ± 0.087
10,V6F,-0.131 ± 0.21
11,V6G,-0.151 ± 0.061
12,G34F,-0.598 ± 0.16
13,G34K,-0.169 ± 0.14
14,G34D,-0.125 ± 0.091
15,G34V,-0.676 ± 0.11
16,G34M,-0.216 ± 0.1
17,V25I,-0.317 ± 0.17
18,V25M,-0.801 ± 0.16
19,V25R,-0.945 ± 0.1
20,V25H,-0.656 ± 0.18
21,V25G,-0.878 ± 0.098
22,V25E,-0.752 ± 0.12
23,V25F,-0.964 ± 0.42
